Bridge positions count the residues as written; N and C are the ends. Square brackets hold non-standard residues; d marks the D form. Ends that are not written are not given here. * marks the point of attachment. Acetyl(2-(4-imidazolyl)) = O=C(Cc1c[nH]cn1)*; Aib = CC(C)(N)C(=O)O
T1: human GIP receptor (human, UniProt P48546 22-466)
T1 sequence (looked up): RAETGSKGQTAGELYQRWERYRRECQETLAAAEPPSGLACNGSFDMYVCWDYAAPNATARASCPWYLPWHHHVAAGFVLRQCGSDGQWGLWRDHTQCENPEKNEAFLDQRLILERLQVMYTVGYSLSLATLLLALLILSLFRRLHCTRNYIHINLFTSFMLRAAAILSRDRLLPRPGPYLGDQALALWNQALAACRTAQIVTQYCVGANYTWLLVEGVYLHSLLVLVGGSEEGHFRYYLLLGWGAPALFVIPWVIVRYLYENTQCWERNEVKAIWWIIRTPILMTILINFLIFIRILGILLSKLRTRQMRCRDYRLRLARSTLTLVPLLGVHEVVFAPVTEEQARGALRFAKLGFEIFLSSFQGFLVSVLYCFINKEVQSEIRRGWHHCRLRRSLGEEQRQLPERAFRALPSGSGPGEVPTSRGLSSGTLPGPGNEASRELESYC


Experiments:
Experiment in all cases: cell-based or functional assay
human GCG receptor = human GCG receptor (human, UniProt P47871 26-477)
Chain of human GCG receptor (P47871 26-477): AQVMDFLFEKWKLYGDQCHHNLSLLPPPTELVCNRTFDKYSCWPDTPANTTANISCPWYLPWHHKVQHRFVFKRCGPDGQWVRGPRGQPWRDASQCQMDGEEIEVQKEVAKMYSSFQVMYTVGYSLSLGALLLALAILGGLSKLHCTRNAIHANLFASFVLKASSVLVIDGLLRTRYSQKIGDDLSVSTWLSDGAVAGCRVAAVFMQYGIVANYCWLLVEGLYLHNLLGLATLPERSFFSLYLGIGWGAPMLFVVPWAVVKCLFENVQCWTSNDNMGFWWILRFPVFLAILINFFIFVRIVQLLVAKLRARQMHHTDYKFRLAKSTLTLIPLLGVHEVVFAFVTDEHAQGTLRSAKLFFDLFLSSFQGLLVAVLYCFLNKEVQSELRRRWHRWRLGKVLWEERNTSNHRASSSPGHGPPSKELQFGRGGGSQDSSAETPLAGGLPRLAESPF

human GIP receptor = biological target: T1, human GIP receptor
human GLP-1 receptor = human GLP-1 receptor (human, UniProt P43220 24-463)

Binder	In vitro activity compared to native peptide (%) vs Glucagon (human GCG receptor) [%]	In vitro activity compared to native peptide (%) vs GIP (human GIP receptor) [%]	In vitro activity compared to native peptide (%) vs GLP-1 (human GLP-1 receptor) [%]
Y[Aib]QGTFTSDYSKYLDECRAKEFVQWLLAQKGKKNDWKHNIT (bridge 16-20) [Triple agonist of SEQ ID NO: 23]	9.3	< 0.1	4.01
{Acetyl(2-(4-imidazolyl))}-GEGTFISDLSKYMDEQAVQLFVEWLMAGGPSSGAPPPSHG [Triple agonist of SEQ ID NO: 12]	< 0.1	< 0.1	0.4
{Acetyl(2-(4-imidazolyl))}-GQGTFTSDLSKQMDEERAREFIEWLLAQKPSSGAPPPSHG [Triple agonist of SEQ ID NO: 17]	< 0.1	< 0.1	0.2
{Acetyl(2-(4-imidazolyl))}-GEGTFISDYSIQLDEIAVQDFVEWLLAQKPSSGAPPPSHG [Triple agonist of SEQ ID NO: 13]	< 0.1	< 0.1	< 0.1
H[Aib]QGTFTSDYSKYLDEKACKEFVQWLLAQ (bridge 16-20) [Triple agonist of SEQ ID NO: 31]	2.2	2.4	135
Y[Aib]QGTFTSDYSKCLDEKRAKEFVQWLLDHHPSSGQPPPS (bridge 16-20) [Triple agonist of SEQ ID NO: 22]	140	59.7	20.1
H[Aib]QGTFTSDYSKYLDEKRAQEFVCWLLAQKGKKNDWKHNIT [Triple agonist of SEQ ID NO: 28]	1.6	< 0.1	17.2
H[Aib]QGTFTSDYSKYLDEKAAKEFVQWLLNTC (bridge 16-20) [Triple agonist of SEQ ID NO: 29]	6	< 0.1	38.5
H[Aib]QGTFTSDYSKYLDEKAQKEFVQWLLDTC (bridge 16-20) [Triple agonist of SEQ ID NO: 30]	0.7	0.8	142
H[Aib]QGTFTSDYSKYLDERACQDFVQWLLDQGGPSSGAPPPS [Triple agonist of SEQ ID NO: 27]	0.8	0.9	83.1
Y[Aib]QGTFTSDYSKALDEKAAKDFVNWLLDQHPSSGQPPPSC (bridge 16-20) [Triple agonist of SEQ ID NO: 102]	29.5	58	23.3
H[Aib]QGTFTSDVSSYLLGQAAKQFIAWLVKGGGPSSGAPPPSC [Triple agonist of SEQ ID NO: 3]	< 0.1	< 0.1	1.8
{Acetyl(2-(4-imidazolyl))}-GEGTFTSDLSKYLDSRRQQLFVQWLKAGGPSSGAPPPSHG [Triple agonist of SEQ ID NO: 11]	< 0.1	< 0.1	1.4
H[Aib]QGTFTSDCSKYLDSRAAQDFVQWLLDGGPSSGAPPPS [Triple agonist of SEQ ID NO: 26]	0.2	< 0.1	64.5
H[Aib]QGTFTSDCSKYLDERAAQDFVQWLLDGGPSSGAPPPS [Triple agonist of SEQ ID NO: 25]	0.1	< 0.1	82.6
Y[Aib]QGTFTSDYSKYLDECRAKEFVQWLLDHHPSSGQPPPS (bridge 16-20) [Triple agonist of SEQ ID NO: 21]	267	22.7	17.8
Y[Aib]QGTFTSDYSKYLDECRAKEFVQWLKNGGPSSGAPPPS (bridge 16-20) [Triple agonist of SEQ ID NO: 24]	9.3	< 0.1	41.2
{Acetyl(2-(4-imidazolyl))}-GQGTFTSDLSIQYEEEAQQDFVEWLKDTGPSSGAPPPSHG [Triple agonist of SEQ ID NO: 20]	< 0.1	< 0.1	< 0.1
{Acetyl(2-(4-imidazolyl))}-GQGTFTSDLSIQYDSEHQRDFIEWLKDTGPSSGAPPPSHG [Triple agonist of SEQ ID NO: 19]	< 0.1	< 0.1	< 0.1
H[Aib]QGTFTSDVSSYLDGQAQKEFIAWLVKGC [Triple agonist of SEQ ID NO: 2]	< 0.1	< 0.1	5.9
{Acetyl(2-(4-imidazolyl))}-GQGTFTSDLSKQMDSEAQQLFIEWLKNGGPSSGAPPPSHG [Triple agonist of SEQ ID NO: 16]	< 0.1	< 0.1	2.1
{Acetyl(2-(4-imidazolyl))}-GQGTFTSDYSIQLDEIAVRDFVEWLKNGGPSSGAPPPSHG [Triple agonist of SEQ ID NO: 14]	< 0.1	< 0.1	28
{Acetyl(2-(4-imidazolyl))}-GQGTFTSDLSKQMDSERAREFIEWLKNTGPSSGAPPPSHG [Triple agonist of SEQ ID NO: 18]	< 0.1	< 0.1	< 0.1
